Measured values taken from publication PMC6038944 (Biochemistry, 2018).
One block for each molecule: values may come before it.

Tests used:
[1] = biological target: apo-transferrin (iron-free serotransferrin) (UniProt P02787); assay: SPR; conditions: 150 mM NaCl, pH 7.4: 20 mM HEPES, pH 6.0: 20 mM PIPES
[2] = biological target: the molecule itself

Sequence of apo-transferrin (iron-free serotransferrin) (P02787 whole entry): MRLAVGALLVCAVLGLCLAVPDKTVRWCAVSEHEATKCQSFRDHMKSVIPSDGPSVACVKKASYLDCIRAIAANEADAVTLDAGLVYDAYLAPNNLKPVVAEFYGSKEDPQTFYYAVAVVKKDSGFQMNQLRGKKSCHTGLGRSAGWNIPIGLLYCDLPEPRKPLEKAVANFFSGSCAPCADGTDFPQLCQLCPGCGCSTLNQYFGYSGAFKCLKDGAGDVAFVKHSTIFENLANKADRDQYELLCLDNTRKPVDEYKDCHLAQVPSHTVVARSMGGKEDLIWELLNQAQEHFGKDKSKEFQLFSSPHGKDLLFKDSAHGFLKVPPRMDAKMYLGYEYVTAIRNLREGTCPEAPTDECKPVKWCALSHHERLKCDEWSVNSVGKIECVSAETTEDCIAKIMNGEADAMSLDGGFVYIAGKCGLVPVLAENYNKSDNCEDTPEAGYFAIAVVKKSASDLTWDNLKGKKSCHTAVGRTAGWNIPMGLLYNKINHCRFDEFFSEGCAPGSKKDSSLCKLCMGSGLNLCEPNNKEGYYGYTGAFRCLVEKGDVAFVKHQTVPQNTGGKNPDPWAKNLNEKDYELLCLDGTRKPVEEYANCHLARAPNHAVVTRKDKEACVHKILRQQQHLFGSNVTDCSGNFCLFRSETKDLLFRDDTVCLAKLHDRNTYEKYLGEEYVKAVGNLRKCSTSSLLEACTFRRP

ka1 ([1]; pH 6.0): 1.01e+06 M⁻¹ s⁻¹
ka2 ([1]; pH 6.0): 3.01e+06 M⁻¹ s⁻¹
kd1 ([1]; pH 6.0): 1.2 s⁻¹
ka1 ([1]; pH 7.4): 450000 M⁻¹ s⁻¹
ka2 ([1]; pH 7.4): 19000 M⁻¹ s⁻¹
kd1 ([1]; pH 7.4): 22000 s⁻¹
Molecule: EGFP-TfR1 (full-length transferrin receptor 1, EGFP fusion)

ka1 ([1]; pH 6.0): 150000 M⁻¹ s⁻¹
ka2 ([1]; pH 6.0): 34000 M⁻¹ s⁻¹
kd1 ([1]; pH 6.0): 1100 s⁻¹
kd2 ([1]; pH 6.0): 643 s⁻¹
ka1 ([1]; pH 7.4): 66000 M⁻¹ s⁻¹
ka2 ([1]; pH 7.4): 6300 M⁻¹ s⁻¹
kd1 ([1]; pH 7.4): 44000 s⁻¹
kd2 ([1]; pH 7.4): 8160 s⁻¹
Molecule: EGFP-TfR2 (full-length transferrin receptor 2, EGFP fusion)

ka1 ([1]; pH 6.0): 160000 M⁻¹ s⁻¹
ka2 ([1]; pH 6.0): 1.03e+06 M⁻¹ s⁻¹
kd1 ([1]; pH 6.0): 350 s⁻¹
kd2 ([1]; pH 6.0): 4950 s⁻¹
ka1 ([1]; pH 7.4): 510000 M⁻¹ s⁻¹
ka2 ([1]; pH 7.4): 163000 M⁻¹ s⁻¹
kd1 ([1]; pH 7.4): 2500 s⁻¹
kd2 ([1]; pH 7.4): 78300 s⁻¹
Molecule: EGFP-TfR2-TfR1HD (TfR2 chimera carrying the TfR1 helical domain) helical domain swap: TfR2 637-801 replaced by TfR1 605-760

B1: full-length EGFP-TfR2 (transferrin receptor-2) (receptor, human, UniProt Q9UP52 1-801, looked up)
chain: MERLWGLFQRAQQLSPRSSQTVYQRVEGPRKGHLEEEEEDGEEGAETLAHFCPMELRGPEPLGSRPRQPNLIPWAAAGRRAAPYLVLTALLIFTGAFLLGYVAFRGSCQACGDSVLVVSEDVNYEPDLDFHQGRLYWSDLQAMFLQFLGEGRLEDTIRQTSLRERVAGSAGMAALTQDIRAALSRQKLDHVWTDTHYVGLQFPDPAHPNTLHWVDEAGKVGEQLPLEDPDVYCPYSAIGNVTGELVYAHYGRPEDLQDLRARGVDPVGRLLLVRVGVISFAQKVTNAQDFGAQGVLIYPEPADFSQDPPKPSLSSQQAVYGHVHLGTGDPYTPGFPSFNQTQFPPVASSGLPSIPAQPISADIASRLLRKLKGPVAPQEWQGSLLGSPYHLGPGPRLRLVVNNHRTSTPINNIFGCIEGRSEPDHYVVIGAQRDAWGPGAAKSAVGTAILLELVRTFSSMVSNGFRPRRSLLFISWDGGDFGSVGSTEWLEGYLSVLHLKAVVYVSLDNAVLGDDKFHAKTSPLLTSLIESVLKQVDSPNHSGQTLYEQVVFTNPSWDAEVIRPLPMDSSAYSFTAFVGVPAVEFSFMEDDQAYPFLHTKEDTYENLHKVLQGRLPAVAQAVAQLAGQLLIRLSHDRLLPLDFGRYGDVVLRHIGNLNEFSGDLKARGLTLQWVYSARGDYIRAAEKLRQEIYSSEERDERLTRMYNVRIMRVEFYFLSQYVSPADSPFRHIFMGRGDHTLGALLDHLRLLRSNSSGTPGATSSTGFQESRFRRQLALLTWTLQGAANALSGDVWNIDNNF
stoichiometry N [2]: 2
